± gives the standard deviation of the averaged measurements.
Tested on: ATP
Test: switch fluorescence ratio, 500 uM ATP over buffer (Cy3 cluster intensity, sum of 5 cycles each) (fold (ratio)); higher = stronger signal-on switching upon ATP binding; sequences stand for … in TCGTCGGCAGCGTCAGATGTGTATAAGAGACAGTTTTTTTTTTTTTTTTTTTTTTTTT…TC
Details: aptamer strand: ATP DNA aptamer (quencher-CACCTGGGGGAGTATTGCGGAGGAAGG + anchor), 100 nM annealed; ATP concentration: 500 uM
Procedure, shortened: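 The quencher-labelled ATP aptamer, at 100 nM, was annealed to Cy3-labelled switching-strand clusters on a modified Illumina MiSeq flow-cell. The clusters were imaged in selection buffer, then after 15 min with 500 uM ATP at 22 °C, and this buffer/ATP cycle ran five times with NaOH stripping and re-annealing between runs. Per-cluster fluorescence ratios, summed target-cycle over summed buffer-cycle Cy3 intensity, were averaged per switch-domain sequence. Clusters outside 100-1000 RFU were excluded.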
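Also: ATP exposure 15 min at 22 °C before imaging.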

Sequence | switch fluorescence ratio
CAAGCGGATT | 1 ± 0.033
CAAGCTAGCG | 1.04 ± 0.016
CAAGCTTGAA | 0.963 ± 0.026
CAAGGAGGGT | 0.9726 ± 0.0079
CAAGGAGTTA | 1.01 ± 0.04
CAAGGGGACG | 1.004 ± 0.0082
CAAGGGGGGC | 0.972 ± 0.03
CAAGGGGTCG | 0.9946 ± 0.0066
CAAGGGTATG | 1.03 ± 0.046
CAAGGGTCGG | 0.996 ± 0.033
CAAGGTGGAT | 1.051 ± 0.009
CAAGGTTATA | 1 ± 0.022
CAAGTACGGA | 1.1 ± 0.17
CAAGTATCGG | 0.973 ± 0.027
CAAGTATGGG | 0.974 ± 0.035
CAAGTATTTA | 1.03 ± 0.011
CAAGTCAAGA | 1.0299 ± 0.00028
CAAGTCAAGG | 1.007 ± 0.0062
CAAGTCAGTA | 0.991 ± 0.025
CAAGTCTATT | 1.01 ± 0.04
CAAGTGCCTG | 1.01 ± 0.025
CAAGTGTATC | 1.02 ± 0.045
CAAGTGTTGG | 1.01 ± 0.05
CAAGTTAAAG | 1.01 ± 0.015
CAAGTTGTGT | 0.9774 ± 0.0087

Sequence | switch fluorescence ratio
CAAGTTTTTG | 1.01 ± 0.033
CAATAAAATC | 0.9924 ± 0.0019
CAATAAGGGG | 1.04 ± 0.1
CAATAATGTG | 0.968 ± 0.034
CAATACAGGG | 1.04 ± 0.042
CAATAGATGG | 0.999 ± 0.016
CAATAGTAGA | 1.01 ± 0.036
CAATATAGTG | 0.981 ± 0.024
CAATATATTT | 0.982 ± 0.0049
CAATATCCCG | 1.05 ± 0.028
CAATATGACT | 0.991 ± 0.092
CAATCACAGG | 1.286 ± 0.0086
CAATCGACCT | 1.27 ± 0.046
CAATCTAAAT | 0.969 ± 0.027
CAATGAAAGC | 1.04 ± 0.021
CAATGAGCCG | 1.02 ± 0.052
CAATGAGTTT | 0.97 ± 0.033
CAATGATTGA | 1.02 ± 0.018
CAATGCATGC | 1.14 ± 0.082
CAATGCGGGG | 1.01 ± 0.023
CAATGGAAAT | 0.984 ± 0.025
CAATGGAGAA | 1.01 ± 0.021
CAATGGAGGA | 1.011 ± 0.0058
CAATGGCCTG | 0.984 ± 0.013
CAATGGGAG | 0.988 ± 0.014

Sequence | switch fluorescence ratio
CAATGGGGTA | 0.992 ± 0.012
CAATGGGGTT | 1.02 ± 0.027
CAATGGTTCA | 1.01 ± 0.013
CAATGTCGTT | 0.985 ± 0.047
CAATGTCTGG | 1.008 ± 0.0027
CAATGTGAAA | 1.008 ± 0.0093
CAATTATGAC | 1 ± 0.045
CAATTCCGTG | 1.02 ± 0.022
CAATTGCAAT | 1.02 ± 0.02
CAATTGCGTA | 0.981 ± 0.068
CAATTGGCCT | 1.05 ± 0.03
CAATTGGTAC | 1.05 ± 0.013
CAATTGTCGT | 0.991 ± 0.033
CAATTGTGGG | 0.996 ± 0.026
CAATTTAATG | 0.999 ± 0.019
CAATTTACGG | 1.1 ± 0.036
CAATTTCCAG | 1.02 ± 0.026
CAATTTGAAG | 0.978 ± 0.051
CAATTTGTGG | 0.968 ± 0.021
CAATTTTATA | 1.033 ± 0.0026
CAATTTTGGA | 1.01 ± 0.028
CACAACACTC | 1.37 ± 0.044
CACAACGGTG | 1.04 ± 0.033
CACAAGGACG | 0.962 ± 0.017
CACAGCAGTC | 2.62 ± 0.34

Sequence | switch fluorescence ratio
CACAGGCCCA | 1.04 ± 0.056
CACATTGTCC | 0.9773 ± 0.0025
CACCGGTTCT | 1.03 ± 0.011
CACCTGGGGG | 1.13 ± 0.11
CACGACTTTT | 1.05 ± 0.04
CACGAGTTGG | 1.014 ± 0.0049
CACGATATTC | 1.18 ± 0.027
CACGCGGAGG | 1.03 ± 0.039
CACGGCCGAA | 0.973 ± 0.013
CACGGGCGGG | 1.05 ± 0.063
CACGGGCTTC | 1.016 ± 0.0084
CACGGGGAAC | 1.28 ± 0.32
CACGGGGGGC | 1.02 ± 0.054
CACGGGGGGT | 1.02 ± 0.052
CACGGGGTTG | 0.982 ± 0.069
CACGGTACGT | 1.06 ± 0.022
CACGTAATTA | 1.25 ± 0.048
CACGTATTCA | 1.15 ± 0.045
CACGTTTGTT | 1.027 ± 0.004
CACTAAAGAT | 1.004 ± 0.0052
CACTAATAAT | 1.033 ± 0.0029
CACTAATTAA | 1.004 ± 0.009
CACTACGAAT | 1.051 ± 0.007
CACTAGAGTG | 1.021 ± 0.0063
CACTAGATGG | 0.992 ± 0.02

Sequence | switch fluorescence ratio
CACTAGTAAA | 0.9984 ± 0.0094
CACTATAATG | 1.05 ± 0.042
CACTCATTTT | 0.98 ± 0.033
CACTCCTGTG | 1.01 ± 0.04
CACTCGCCTC | 1.134 ± 0.0068
CACTCTAGGC | 1.07 ± 0.02
CACTGGACGG | 1.28 ± 0.049
CACTGGCATG | 0.998 ± 0.029
CACTGGGGGA | 0.9949 ± 0.0013
CACTGTGTTG | 0.987 ± 0.035
CACTTACGTT | 1.347 ± 0.012
CACTTAGGGG | 1.01 ± 0.022
CACTTAGGTG | 1.19 ± 0.032
CACTTGGGCG | 1.033 ± 0.0077
CACTTTGGTT | 1.02 ± 0.011
CACTTTTTTT | 1.01 ± 0.063
CAGAAAATGG | 1 ± 0.012
CAGAAATATT | 1.01 ± 0.075
CAGAAATTGG | 1.013 ± 0.01
CAGAACGCTG | 1.35 ± 0.12
CAGAACGGCA | 1.095 ± 0.0092
CAGAACGTTG | 0.983 ± 0.016
CAGAACTGCG | 1.01 ± 0.015
CAGAAGCGAT | 1.33 ± 0.025
CAGACAGTTT | 0.993 ± 0.013

Sequence | switch fluorescence ratio
CAGACCTCGT | 1 ± 0.013
CAGACTGGGG | 1 ± 0.039
CAGAGAGCGG | 0.9815 ± 0.0031
CAGAGAGCGT | 1.008 ± 0.0068
CAGAGAGGTG | 1.07 ± 0.041
CAGAGAGTTT | 0.9851 ± 0.0044
CAGAGCGGGG | 0.998 ± 0.023
CAGAGGAACT | 0.999 ± 0.035
CAGAGGAGGC | 0.987 ± 0.016
CAGAGGCCAG | 0.993 ± 0.025
CAGAGGGAAT | 1.05 ± 0.032
CAGAGGGCAG | 1.02 ± 0.047
CAGAGGGTGT | 1.12 ± 0.032
CAGAGGTCGT | 1.013 ± 0.0081
CAGAGTTCGG | 1.03 ± 0.015
CAGAGTTTGA | 0.969 ± 0.0047
CAGATAGGTT | 1.09 ± 0.14
CAGATCAAGT | 1.016 ± 0.0034
CAGATCACGA | 1.01 ± 0.017
CAGATGGGAG | 1.02 ± 0.014
CAGATGGTGT | 1.02 ± 0.015
CAGATTCGAG | 1.008 ± 0.01
CAGATTGATG | 0.983 ± 0.043
CAGATTGGGG | 1 ± 0.025
CAGATTGTGT | 1 ± 0.039

Sequence | switch fluorescence ratio
CAGCAAGGGA | 1.12 ± 0.025
CAGCACAGGG | 1.18 ± 0.017
CAGCACGATA | 1.1615 ± 0.00014
CAGCAGCTGG | 1.05 ± 0.034
CAGCATAGAT | 1.08 ± 0.023
CAGCCCTATA | 1.04 ± 0.047
CAGCCGGATG | 1.02 ± 0.028
CAGCCTGGGC | 0.984 ± 0.016
CAGCGCATTA | 2.01 ± 0.11
CAGCGGGACG | 1.02 ± 0.035
CAGCGGGTCT | 1.04 ± 0.054
CAGCGTATTG | 1.04 ± 0.037
CAGCTCGGTC | 0.9687 ± 0.0082
CAGCTGCTGC | 1.014 ± 0.0051
CAGCTGGGAG | 1.03 ± 0.011
CAGCTTCCCC | 1.29 ± 0.42
CAGGAAAATT | 1 ± 0.032
CAGGAACTTA | 0.9843 ± 0.0052
CAGGACACCT | 1.17 ± 0.034
CAGGACACTA | 1.03 ± 0.026
CAGGACGGGT | 1.02 ± 0.03
CAGGACTGCA | 1.028 ± 0.0039
CAGGACTGGG | 1.01 ± 0.0056
CAGGATAGGC | 1.003 ± 0.0044
CAGGATGAAT | 0.999 ± 0.033

Sequence | switch fluorescence ratio
CAGGATGTGC | 0.992 ± 0.032
CAGGCAGATG | 1.01 ± 0.015
CAGGCAGGGT | 0.969 ± 0.035
CAGGCAGTAA | 1.18 ± 0.073
CAGGCATTAT | 1.08 ± 0.043
CAGGCCGGAG | 1.01 ± 0.022
CAGGCGACGG | 1.01 ± 0.033
CAGGCGGCG | 0.991 ± 0.017
CAGGCTATTT | 1.03 ± 0.049
CAGGCTGACC | 0.974 ± 0.025
CAGGCTGGGC | 0.9862 ± 0.008
CAGGCTTTTA | 0.983 ± 0.028
CAGGGAATAG | 1.07 ± 0.049
CAGGGACCTG | 1.03 ± 0.032
CAGGGACGGC | 1.02 ± 0.012
CAGGGACTGG | 1 ± 0.072
CAGGGAGAGG | 1 ± 0.011
CAGGGATAGT | 1.26 ± 0.32
CAGGGCAAGG | 1.12 ± 0.08
CAGGGGGCAG | 1.05 ± 0.07
CAGGGGGCGT | 0.984 ± 0.0037
CAGGGGGCTA | 1.01 ± 0.067
CAGGGGGGGA | 1.01 ± 0.044
CAGGGGTATA | 1.02 ± 0.024
CAGGGGTGGG | 0.999 ± 0.058

— the supplement of paper PMC10126150
